Test results from paper PMC3594340 (Journal of the American Society for Mass Spectrometry, 2013).

Target: the molecule itself
Assay: cross-linking

B1: SO_2176 from Shewanella oneidensis (natural protein)
chain: MAIQSKYSNTQVESLIAEILVVLEKHKAPTDLSLMALGNCVTHLLERKVPSESRQAVAEQFAKALAQSVKSN
binding result: binds
